Experimental data reported in the NTF2 design screens of Basanta et al. (2020).

Test: protease stability score; higher = more stable; yeast display proteolysis, trypsin and chymotrypsin;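 note: relative to predicted unfolded state with 0 unfolded-like and 1 meaning tenfold more protease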

Work on “SEEEERLRTIAEVLLHLLLTGDEEHLERLMDPHARYEQGDKHAIGREEVSHLFRRLLEHMRTREIHLHRWHSVNGVIYLDTRVIMEVNGRRIDTDTKVVVVVVDGKVRSMRNQFN” yielded a protease stability score of 0.113.
“SEEEERMETLTRLLDHAWHTGDFDFLSKLLDPNTRVVQGEFHHHGRHALRKILHDLNRIMGVDHSDIEDREIQGDKIHIHVRIEVNGRVVDSHINIIVVDGRIKTVEMTIR” gave a protease stability score of -0.216.
Sequence “SEEEERSERSLKHLLKTELTGNEEEFWRLADPNAKIEVIIDGVRISDHGREAIIRLWRFMGFDHLIFRHIHVHIQGDKMDVHIQGESRIGDKEMRTTIFLHVIKINGRWINHTLIIEQK” has a protease stability score of 1.24.
Work on “SEEEESAKIAIKVMLHSLHTGDEHTMSRLMDPNAREIINGRHNHGREVILEFLRRLGFTKVEIKDFRLTHMSVQGEFVFVHGTTNGEFNGVDTNVDLEIVVLKVDGRWTIQSVFYR” yielded a protease stability score of 1.67.
With “SEEEESAKWFNHVRHEAERTGDEETLLRLLDPSVKSTYGDKTSHGRHEMEEIMKRLGVSRVHLDIRHVEVQGDKVNVDGLVEFDGQEMRVILIVLKIDGRWIAEHVIVH” the protease stability score was -0.118.
“SEEEESARRAWEKILHVLETGDERDSRRLMDPDTKIEQGDKTEHGMEKIAKMITEWRFHDVKLTDMRVIGDKVEIDGTVRGEFDGREYKIHVFILVVKINGRWVIHKTVLG” showed a protease stability score of 1.06.
With “SEEEESERKVLHKFTEAIRTGDEHTLENLIDPNVKIDAENRSHHGMEDWLKWLMELRRRADHIDFRIHSIHTQGDKLHVHSEIIVVQGDKHIHIEISMIINKVNGRWHIHHIELR” the protease stability score was 1.29.
In the case of “SEEEESIHEAQKVFLKIIMTGDWEEIARRLDPDVRLHIGNKKVHGREEAIEFFRKFLEEIRIHDEELKEFSSIDGRVHIRGEIDGTINGVRDRVEVHNVIWKFNGRWFISFREER”, the protease stability score is reported as 1.36.
“SEEEESIRHSWEIFETVLKTGDWTDYEKLFDPNDRTEIGDKRLHGMDLLIHILRRLGIKHNHAEMRIRSFEMIGDKAIIDGEIHVVLDFNGREVRSSSEILIIDRKINGRWLVESMHVI” gave a protease stability score of 1.21.
“SEEEESSEDATKLILRLWKTGDEHEWEHLFDPNVKVHIGDKHYVGMEIAVNTLHMLLRELGIDHIRLRDVKIFNGKVIIVFKIEVNGREFETHIISEKVNGRWRIKSVRFE” gave a protease stability score of 1.39.
In the case of “SEEEESSERATKILRELLKTGNFRLLLELMDPNARLHTHINGVNIHDHGRNLARWLVERIKNAVIKINDEEVRIFNGRVEVDIDGELLINGRNFRVHEHWIFRKIDGKWFFEEVEIRVE”, the protease stability score is reported as 2.16.
“SEEEESSHNAIKIWMETMETGNEELYLRLLDPHTRLDVNGKEFIGREVLKMFKKQIDHVKDVDVEHVEVQGDKVILNGRVRGDINGVERNTIEHLIVRKIDGRWRITEFSIR” showed a protease stability score of 0.94.
Sequence “SEEEESSKYAIELLRKVVETGDWRLIQRLADPHAKIEQGDKRLHGRETVTKHLIELGIDHIKFRDSRVQGDKVELDGEVDVNGQHRDTHILIEKIDGVWVWRRFEIK” has a protease stability score of 0.97.
Sequence “SEEEESTHVWSRLFSHAIETGDEDLLERLIDPHVKLIVDGRELHGREELLTWIRRLFRHLGIDHMEVRIKNFDIINGRIRVEDELLLIVNGKEIRLETKVTVEKFDGKWHNQEVKIE” has a protease stability score of 0.776.
“SEEEESWRRIAEEELRIRKTGDEDRFRELHDPSVKIDWNGQIIVGWEELHEILRHIAERYPNLRFEVTHSDVIDGRVHIDGRLNVNGVTLEFHIESVIVNGRTKSIRIEVR” gave a protease stability score of 0.524.
In the case of “SEEEETAYKVMEEVISAWLTGDEDLFNELADPDVRFELEFNGKKIDIIGRELVSKYWRDVIDHIRVEVVLRDYRMIDGRIETETEIYVEVGDKSHSVETRLHMEVIDGRLRTVKIKVR”, the protease stability score is reported as 2.22.
Work on “SEEEETIRRVAEVLVHSILTGDEHFEENYLDPNARIDVNGKHFIGRERYLEAIRDLNEHLGWELKDVKLREVNVQGDKMHLKMEIKRHVNGKDLFIDMHVNVWKVNGKWLIRSLRYS” yielded a protease stability score of 1.44.
Work on “SEEEETLEELTRRLLHTWVTGDEQTLKDLADPDVRLIFNGQTYHGREQAERIIKELLDKLGVDRVHSEPRRFNIINGRIRMHVRIHYGDKEYIVHIIATKIDGRWTIKNVIFD” yielded a protease stability score of 1.24.
With “SEEEETLKRLAHHMYESYITGDERVIKHLVDPNARSRIGEFDDHGREATEELIRRIDHVHHIDIRDMKIQGNWLHLHVRVDGVVDGKRTEHDMEIIVLKVDGKWIVHSMIQR” the protease stability score was 1.05.
Work on “SEEEETLRDALELVREVLETGDPHLSERLFDPDVRVIYGDKHYHGREYASEMIRFMGVKHFHIKSVRDVDGQVDIDTETHFNGKKYRMHLQTKKIDGKWHLRIIEFR” yielded a protease stability score of 1.39.
Work on “SEEEEVAWEAVEILSTFILTGDFESLNKLFDPHVRVRIGDKELHGRETTNKIFRKEREEHGIEIRHIHVHDVHVINGRIHADVEHKIRINGKEDSRRVEWIIEKYNGRWIVREIRVH” yielded a protease stability score of 1.35.
In the case of “SEEEEVIDEAIHILEKHMQTGDWRVLRELADPNMRVHVNGRDLHGREQYIRWIEFLLKRVPNLKLDHFVLDHQHVVNGVAHLEGRLTYTINGVIHKTRTHFHIFKFDGQWRLESQSER”, the protease stability score is reported as 0.951.
“SEEEEVLRHLSKTFTRAMLTGDWKFLFEFADPHVRNDVGDWTRIGMHSMIELLELLHRELRITHLHIDEVRVIGNKAEWEGRNNVRINGQEDKRDVRLELEIVDGKMSLVNVEFK” showed a protease stability score of 0.364.
“SEEEEVMERFVELLIKLLITGDEEVLEHLMDPNVRIQIGDKVYHGREVARDLWRRYHRHWRIHDTEVKHHHVQGEFIEIHISIDGEIDGRREEERIIFFVVKINGRWLLHDIHFN” showed a protease stability score of 2.51.
With “SEEEEWAEIASKLEIEIYLTGDFERFRKFADPHVRYEIHIDGREFKIHGMELYSEWLLRFKGVRLFIKDERISVIGDKLYIHINGDLEFNGRRQDVHFEFLTLKVDGRWIVKKIRNESR” the protease stability score was 1.59.
